# PMC10592355
# What was measured:
# [1] = tested on: TyrRS K244Q (Homo sapiens); assay: filter binding; conditions: Filter binding: 10 mM HEPES pH 7.5, 4 mM KCl, 0.02 mg/mL BSA, 0.2 mM DTT, 30 min RT, TyrRS 125 nM to 8 uM, wash 60 mM HEPES pH 7.5, 10 mM MgCl2; EMSA …
# TyrRS WT (Homo sapiens) = assay: filter binding; conditions: Filter binding: 10 mM HEPES pH 7.5, 4 mM KCl, 0.02 mg/mL BSA, 0.2 mM DTT, 30 min RT, TyrRS 125 nM to 8 uM, wash 60 mM HEPES pH 7.5, 10 mM MgCl2; EMSA …
substance,measurement,setting,value
human tRNATyr transcript,Kd,[1],1180 nM
same,Kd,TyrRS WT (Homo sapiens),849 nM
